According to paper PMC12708450, “Targeting tumor-infiltrating regulatory T cells: combining CD47 and PD-L1 inhibition via a novel aptamer-siRNA chimera”:

Target: PD-L1 (recombinant human) (Homo sapiens, UniProt Q9NZQ7 19-238)
Assay: ELONA; 1:1 hyperbolic fit; ELONA: PD-L1 coated in PBS at 4 C overnight; blocked with PBS, 0.1% Tween 20, 1% BSA; wash PBS, 1 mM MgCl2, 0.1% Tween 20, 0.1% BSA; oligo heated 95 C 10 min then on ice 10 min; binding 45 min at room temperature; pH not stated
Settings: protein: recombinant; label: biotin (ELONA)

Sequence of PD-L1 (recombinant human) (Q9NZQ7 19-238): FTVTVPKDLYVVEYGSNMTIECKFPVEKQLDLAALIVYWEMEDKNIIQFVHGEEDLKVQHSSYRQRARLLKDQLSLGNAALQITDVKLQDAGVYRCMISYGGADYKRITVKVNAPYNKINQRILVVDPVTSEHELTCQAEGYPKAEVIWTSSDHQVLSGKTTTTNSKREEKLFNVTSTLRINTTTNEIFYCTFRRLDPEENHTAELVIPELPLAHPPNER

B1: PD-L1 aptamer (structured_DNA)
DNA: ACCGACCGTGCTGGACTCATCTCGCTTTTTTCACGGTCCACACTACTATGAGCGAGCCTGGCG
Which Kd does the source give for B1 here?
The Kd was 108 nM.
